Reference: patent US20200270588A1, “GLUCOSYL TRANSFERASE POLYPEPTIDES AND METHODS OF USE” (Syngenta Participations AG, priority 2017, published 2020)

Assay: LC/MS plate assay of crude E. coli extracts, Zea mays bx8 derivatives, herbicide V
Type: biochemical
Settings: for activity with herbicide V: LC/MS; for activity relative to like-expressed Zea mays bx9 w/t extract: herbicide V, LC/MS peaks, estimate
Description: In an alternative method for assaying the various enzymes, the test glucosyl transferase enzyme is reacted with substrates exactly as above except that the assay is stopped by adding an equal volume of acetonitrile. Alternatively 50 or 100 μl samples from assay reactions are added to 500 μl ethyl acetate to stop the reaction. In this case samples are then vortexed and 400 μl of the ethyl acetate partition removed, dried down, and resuspended in 100 μl 80:20 acetonitrile/water. The formation of product gluco side and/or disappearance of substrate test herbicide is then monitored directly by LC/MS. Samples are analyzed by LC-MS using an Agilent 1290 liquid chromatography system and Thermo Q-Exactive mass spectrometer. The chromatography is achieved on a Waters Acquity C18 BEH (50×2.1 mm) 1.7 μm particle size column, using a 6 minute gradient run of Water (0.2% formic acid) and Acetonitrile. The Q-Exactive is operated in positive ionisation electrospray mode, using Full scan-AIF mode, at 35,000 resolution, between 100-800 m/z. All analytes are identified from the full scan data to within at least 5 ppm accuracy of their predicted pseudo-molecular ion [M+H]^+ m/z value. In order to obtain quantitative data standard curves are run using herbicides and herbicide glucosides synthesized as standards. Where these synthetic glucosides were not available the LC/MS assay could only be used to provide relative data.
The glucosyl transferase activities of the mutant bx8-derived polypeptides expressed in these strains were initially assayed versus herbicide V as described in Example 1. The partly purified C-terminally his tagged w/t bx8 enzyme (SEQ ID No: 2) catalyzed glucosyl transfer to herbicide V at a low rate estimated to be less than about 0.002/s at 1 mM herbicide V which, because of a relatively high background of UDP formation in the DMSO (no substrate reagent control) was difficult to quantify using the luminescence assay. Thus further assays were run by LC/MS using which technique the formation of an O-beta glucosyl glucoside of herbicide V could more easily be confirmed but only quantified in a relative sense. Thus the various derivatives of C-terminally his tagged Zea mays bx8 SEQ ID No:2 were cloned and expressed in E. coli BL21 (DE3) as described in Example 1 and assayed in plates as crude extracts, as in Example 2, but monitored by LCMS rather than the luminescence assay.
The different stereoisomer standards chromatographed distinctly on LC (FIGS. 8A-8H). By comparing the LC elution profiles of the standards with the enzyme products at the correct mass it was possible to characterize which polypeptides catalyzed the formation of which O-glucosides. Assay samples and glucoside conjugate standards are run using the identical chromatographic conditions to allow us to identify the conjugate isomer formed in the assay. In short, as would be expected for inverting glucosyl transferases all of the bx enzymes tested produced beta glucoside products (from the alpha-UDP-glucose substrate) from all herbicides tested. But there can be subtle variations between enzymes in stereochemistry of the products made at other chiral centers.

Row | Molecule | activity with herbicide V | activity relative to like-expressed Zea mays bx9 w/t extract | activity relative to like-expressed Zea mays bx9 w/t extract (listed as SEQ ID No 40)
1 | SEQ ID NO: 58: zmBX8/zmBX9 hybrid polypeptide (protein, Hybrid sequence between Zea mays Bx8 and Bx9 sequences, zmBX8/zmBX9 hybrid polypeptide) MAASCGGRVVVFPFPFQGHFNPVMRLARALHARGVGITVFHTAGARAPDPADYPADYRFVPVPVEVAPELMASEDIAAIVTALNAACEAPFRDRLSALLSAADGEAGEAGGRVRCVLTDVSWDAVLSAARGLGVPALGVMTASAATFRVYMAYRTLVDKGYLPVREERKDDAVAELPPYRVKDLLRHETCDLEEFADLLGRVIAAARLSSGLIFHTFPFIEAGTLGEIRDDMSVPVYAVAPLNKLVPTATASLHGVVQADRGCLQWLDAQRARSVLYVSFGSMAAMDPHEFVELAWGLADAGRPFVWVVRPNLIRGFESGALPDGVEDRVRGRGVVVSWAPQEEVLAHPAVGGFFTHCGWNSTVEAVSEGVPMICHPRHGDQYGNARYVCHVWKVGTEVAGDQLERGEIKAAIDRLMGGSEEGEGIRKRMNELKIAADKGIDESAGSDLTNLVHLINSY | active |  | 
2 | A246T, E256V: double mutant of Zea mays bx8, printed A248T, E256V in b223 (protein, Mutated Zea mays Bx8 protein sequence, double mutant of Zea mays bx8, printed A248T, E256V) MAASCGGRVVVFPFPFQGHFNPVMRLARALHARGVGITVFHTAGARAPDPADYPADYRFVPVPVEVAPELMASEDIAAIVTALNAACEAPFRDRLSALLSAADGEAGEAGGRVRCVLTDVSWDAVLSAARGLGVPALGVMTASAATFRVYMAYRTLVDKGYLPVREERKDDAVAELPPYRVKDLLRHETCDLEEFADLLGRVIAAARLSSGLIFHTFPFIEAGTLGEIRDDMSVPVYAVAPLNKLVPTATASLHGVVQADRGCLRWLDAQRARSVLYVSFGSMAAMDPHEFVELAWGLADAGRPFVWVVRPNLIRGFESGALPDGVEDRVRGRGVVVSWAPQEEVLAHPAVGGFFTHCGWNSTVEAVSEGVPMICHPRHGDQYGNARYVCHVWKVGTEVAGDQLERGEIKAAIDRLMGGSEEGEGIRKRMNELKIAADKGIDESAGSDLTNLVHLINSY | detectable activity |  | 
3 | SEQ ID NO: 40: I374V, H376C double mutant of Zea mays bx8 (protein, Mutated Zea mays Bx8 protein sequence) MAASCGGRVVVFPFPFQGHFNPVMRLARALHARGVGITVFHTAGARAPDPADYPADYRFVPVPVEVAPELMASEDIAAIVTALNAACEAPFRDRLSALLSAADGEAGEAGGRVRCVLTDVSWDAVLSAARGLGVPALGVMTASAATFRVYMAYRTLVDKGYLPVREERKDDAVAELPPYRVKDLLRHETCDLEEFADLLGRVIAAARLSSGLIFHTFPFIEAGTLGEIRDDMSVPVYAVAPLNKLVPAATASLHGEVQADRGCLRWLDAQRARSVLYVSFGSMAAMDPHEFVELAWGLADAGRPFVWVVRPNLIRGFESGALPDGVEDRVRGRGVVVSWAPQEEVLAHPAVGGFFTHCGWNSTVEAVSEGVPMVCCPRHGDQYGNARYVCHVWKVGTEVAGDQLERGEIKAAIDRLMGGSEEGEGIRKRMNELKIAADKGIDESAGSDLTNLVHLINSY | detectable activity | about a third to a half | up to about half
4 | V367I, I374V: double mutant of Zea mays bx8 (protein, Mutated Zea mays Bx8 protein sequence) MAASCGGRVVVFPFPFQGHFNPVMRLARALHARGVGITVFHTAGARAPDPADYPADYRFVPVPVEVAPELMASEDIAAIVTALNAACEAPFRDRLSALLSAADGEAGEAGGRVRCVLTDVSWDAVLSAARGLGVPALGVMTASAATFRVYMAYRTLVDKGYLPVREERKDDAVAELPPYRVKDLLRHETCDLEEFADLLGRVIAAARLSSGLIFHTFPFIEAGTLGEIRDDMSVPVYAVAPLNKLVPAATASLHGEVQADRGCLRWLDAQRARSVLYVSFGSMAAMDPHEFVELAWGLADAGRPFVWVVRPNLIRGFESGALPDGVEDRVRGRGVVVSWAPQEEVLAHPAVGGFFTHCGWNSTVEAISEGVPMVCHPRHGDQYGNARYVCHVWKVGTEVAGDQLERGEIKAAIDRLMGGSEEGEGIRKRMNELKIAADKGIDESAGSDLTNLVHLINSY | detectable activity |  | 
